This is an account of results in the RNAGym collection of RNA variant scans (doi:10.1093/molbev/msab373).

The labels stand for the following.
B1: Azoarcus group I ribozyme (parent)
chain: GUGCCUUGCGCCGGGAAACCACGCAAGGGAUGGUGUCAAAUUCGGCGAAACCUAAGCGCCCGCCCGGGCGUAUGGCAACGCCGAGCCAAGCUUCGGCGCCUGCGCCGAUGAAGGUGUAGAGACUAGACGGCACCCACCUAAGGCAAACGCUAUGGUGAAGGCAUAGUCCAGGGAGUGGCGAAAGUCACACAAACCGG

In this data set the parent is B1. The experiment in a line: reverse-splicing fitness (ratio to wild type); higher = more active; in vitro selection; Mg2+ level not given. In a few lines:
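An in vitro group I ribozyme library with randomized positions was T7-transcribed and gel-purified. In triplicate, 10 pmol RNA in EPPS pH 7.5 was reacted with 50 pmoles of a 30-nt RNA substrate for 1 h at 37 °C across several added MgCl2 levels (1–48 mM), then stopped with EDTA. Products were reverse transcribed from a substrate-complementary primer, PCR-amplified and sequenced (HiSeq 4000). Fitness is a variant's read proportion after selection over that before, normalised to wild type.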
For GUGCCUUGCGCCGGGAAACCACGCAAGGGAUGGUGUCAAAUUCGGCGAAACCUAAGCGCCCGCCCGGGCGUAUGGCAACGCAGAGCCAAGCUUCGGCGCCUGCGCCGAUGGAGGUGUAGCGACUAGACGGCACCCACCUAAGGCUAACGCUAUGGUGAAGGCAUAGUCUAGGGAGAGGCGAAAGUCACACAAACCGG [C82A A111G A120C A145U C169U U176A], the reverse-splicing fitness amounted to 0.0152.
Next, GUGCCUUGCGCCGGGAAACCACGCAAGGGAUGGUGUCAAAUUCGGCGAAACCUAAGCGCCCGCCCGGGCGUAUGGCAACGCAGAGCCAAGCUUCGGCGCCUGCGCCGAUGGAGGUGUAGCGACUAGACGGCACCCACCUAAGGCUAACGCUAUGGUGAAGGCAUAGUCUAGGGAGGGGCGAAAGUCACACAAACCGG [C82A A111G A120C A145U C169U U176G]: 0.00505; GUGCCUUGCGCCGGGAAACCACGCAAGGGAUGGUGUCAAAUUCGGCGAAACCUAAGCGCCCGCCCGGGCGUAUGGCAACGCAGAGCCAAGCUUCGGCGCCUGCGCCGAUGGAGGUGUAGCGACUAGACGGCACCCACCUAAGGCUAACGCUAUGGUGAAGGCAUAGUCCAGGGAGAGGCGAAAGUCACACAAACCGG [C82A A111G A120C A145U U176A]: 0.0171; GUGCCUUGCGCCGGGAAACCACGCAAGGGAUGGUGUCAAAUUCGGCGAAACCUAAGCGCCCGCCCGGGCGUAUGGCAACGCAGAGCCAAGCUUCGGCGCCUGCGCCGAUGGAGGUGUAGCGACUAGACGGCACCCACCUAAGGCUAACGCUAUGGUGAAGGCAUAGUCCAGGGAGCGGCGAAAGUCACACAAACCGG [C82A A111G A120C A145U U176C]: 0.0247.
Next, GUGCCUUGCGCCGGGAAACCACGCAAGGGAUGGUGUCAAAUUCGGCGAAACCUAAGCGCCCGCCCGGGCGUAUGGCAACGCAGAGCCAAGCUUCGGCGCCUGCGCCGAUGGAGGUGUAGCGACUAGACGGCACCCACCUAAGGCUAACGCUAUGGUGAAGGCAUAGUCCAGGGAGGGGCGAAAGUCACACAAACCGG [C82A A111G A120C A145U U176G]: 0.00629; GUGCCUUGCGCCGGGAAACCACGCAAGGGAUGGUGUCAAAUUCGGCGAAACCUAAGCGCCCGCCCGGGCGUAUGGCAACGCAGAGCCAAGCUUCGGCGCCUGCGCCGAUGGAGGUGUAGCGACUAGACGGCACCCACCUAAGGCAAACGAUAUGGUGAAGGCAUAGUCCAGGGAGUGGCGAAAGUCACACAAACCGG [C82A A111G A120C C150A]: 0.0162.
Next, GUGCCUUGCGCCGGGAAACCACGCAAGGGAUGGUGUCAAAUUCGGCGAAACCUAAGCGCCCGCCCGGGCGUAUGGCAACGCAGAGCCAAGCUUCGGCGCCUGCGCCGAUGGAGGUGUAGCGACUAGACGGCACCCACCUAAGGCUAACGCUAUGGUGAAGGCAUAGUCUAGGGAGUGGCGAAAGUCACACAAACCGG [C82A A111G A120C A145U C169U]: 0.0135; GUGCCUUGCGCCGGGAAACCACGCAAGGGAUGGUGUCAAAUUCGGCGAAACCUAAGCGCCCGCCCGGGCGUAUGGCAACGCAGAGCCAAGCUUCGGCGCCUGCGCCGAUGGAGGUGUAGCGACUAGACGGCACCCACCUAAGGCUAACGCUAUGGUGAAGGCAUAGUCGAGGGAGUGGCGAAAGUCACACAAACCGG [C82A A111G A120C A145U C169G]: 0.00967; GUGCCUUGCGCCGGGAAACCACGCAAGGGAUGGUGUCAAAUUCGGCGAAACCUAAGCGCCCGCCCGGGCGUAUGGCAACGCAGAGCCAAGCUUCGGCGCCUGCGCCGAUGGAGGUGUAGCGACUAGACGGCACCCACCUAAGGCUAACGCUAUGGUGAAGGCAUAGUCAAGGGAGUGGCGAAAGUCACACAAACCGG [C82A A111G A120C A145U C169A]: 0.00859.
On to GUGCCUUGCGCCGGGAAACCACGCAAGGGAUGGUGUCAAAUUCGGCGAAACCUAAGCGCCCGCCCGGGCGUAUGGCAACGCAGAGCCAAGCUUCGGCGCCUGCGCCGAUGGAGGUGUAGCGACUAGACGGCACCCACCUAAGGCUAACGUUAUGGUGAAGGCAUAGUCCAGGGAGCGGCGAAAGUCACACAAACCGG [C82A A111G A120C A145U C150U U176C], for which the reverse-splicing fitness was 0.0248.
Turning to GUGCCUUGCGCCGGGAAACCACGCAAGGGAUGGUGUCAAAUUCGGCGAAACCUAAGCGCCCGCCCGGGCGUAUGGCAACGCAGAGCCAAGCUUCGGCGCCUGCGCCGAUGGAGGUGUAGCGACUAGACGGCACCCACCUAAGGCUAACGUUAUGGUGAAGGCAUAGUCCAGGGAGGGGCGAAAGUCACACAAACCGG [C82A A111G A120C A145U C150U U176G], the reverse-splicing fitness turned out to be 0.00709.
On to GUGCCUUGCGCCGGGAAACCACGCAAGGGAUGGUGUCAAAUUCGGCGAAACCUAAGCGCCCGCCCGGGCGUAUGGCAACGCAGAGCCAAGCUUCGGCGCCUGCGCCGAUGGAGGUGUAGCGACUAGACGGCACCCACCUAAGGCUAACGUUAUGGUGAAGGCAUAGUCCAGGGAGAGGCGAAAGUCACACAAACCGG [C82A A111G A120C A145U C150U U176A], for which the reverse-splicing fitness was 0.0145.
As for GUGCCUUGCGCCGGGAAACCACGCAAGGGAUGGUGUCAAAUUCGGCGAAACCUAAGCGCCCGCCCGGGCGUAUGGCAACGCAGAGCCAAGCUUCGGCGCCUGCGCCGAUGGAGGUGUAGCGACUAGACGGCACCCACCUAAGGCAAACGAUAUGGUGAAGGCAUAGUCGAGGGAGAGGCGAAAGUCACACAAACCGG [C82A A111G A120C C150A C169G U176A], the figure is 0.0219; as for GUGCCUUGCGCCGGGAAACCACGCAAGGGAUGGUGUCAAAUUCGGCGAAACCUAAGCGCCCGCCCGGGCGUAUGGCAACGCAGAGCCAAGCUUCGGCGCCUGCGCCGAUGGAGGUGUAGCGACUAGACGGCACCCACCUAAGGCAAACGAUAUGGUGAAGGCAUAGUCGAGGGAGCGGCGAAAGUCACACAAACCGG [C82A A111G A120C C150A C169G U176C], 0.0256; as for GUGCCUUGCGCCGGGAAACCACGCAAGGGAUGGUGUCAAAUUCGGCGAAACCUAAGCGCCCGCCCGGGCGUAUGGCAACGCAGAGCCAAGCUUCGGCGCCUGCGCCGAUGGAGGUGUAGCGACUAGACGGCACCCACCUAAGGCAAACGAUAUGGUGAAGGCAUAGUCGAGGGAGGGGCGAAAGUCACACAAACCGG [C82A A111G A120C C150A C169G U176G], 0.00675.
